According to patent publication US20110263454A1, “Methods of Identifying Functional Characteristics of Promoters, Transcription Modifying Proteins and Transcription Modulating Agents” (Salk Institute for Biological Studies, priority 2008, published 2011):

B1: RARb: Retinoic acid receptor β (NR1B2), nuclear hormone receptor cDNA driver (protein, UniProt P10826 1-455, looked up)
Retinoic acid receptor beta: MTTSGHACPVPAVNGHMTHYPATPYPLLFPPVIGGLSLPPLHGLHGHPPPSGCSTPSPATIETQSTSSEELVPSPPSPLPPPRVYKPCFVCQDKSSGYHYGVSACEGCKGFFRRSIQKNMIYTCHRDKNCVINKVTRNRCQYCRLQKCFEVGMSKESVRNDRNKKKKETSKQECTESYEMTAELDDLTEKIRKAHQETFPSLCQLGKYTTNSSADHRVRLDLGLWDKFSELATKCIIKIVEFAKRLPGFTGLTIADQITLLKAACLDILILRICTRYTPEQDTMTFSDGLTLNRTQMHNAGFGPLTDLVFTFANQLLPLEMDDTETGLLSAICLICGDRQDLEEPTKVDKLQEPLLEALKIYIRKRRPSKPHMFPKILMKITDLRSISAKGAERVITLKMEIPGSMPPLIQEMLENSEGHEPLTPSSSGNTAEHSPSISPSSVENSGVSQSPLVQ
B2: RARa: Retinoic acid receptor α (NR1B1), nuclear hormone receptor cDNA driver (protein, UniProt P10276 1-462, looked up)
Retinoic acid receptor alpha: MASNSSSCPTPGGGHLNGYPVPPYAFFFPPMLGGLSPPGALTTLQHQLPVSGYSTPSPATIETQSSSSEEIVPSPPSPPPLPRIYKPCFVCQDKSSGYHYGVSACEGCKGFFRRSIQKNMVYTCHRDKNCIINKVTRNRCQYCRLQKCFEVGMSKESVRNDRNKKKKEVPKPECSESYTLTPEVGELIEKVRKAHQETFPALCQLGKYTTNNSSEQRVSLDIDLWDKFSELSTKCIIKTVEFAKQLPGFTTLTIADQITLLKAACLDILILRICTRYTPEQDTMTFSDGLTLNRTQMHNAGFGPLTDLVFAFANQLLPLEMDDAETGLLSAICLICGDRQDLEQPDRVDMLQEPLLEALKVYVRKRRPSRPHMFPKMLMKITDLRSISAKGAERVITLKMEIPGSMPPLIQEMLENSEGLDTLSGQPGGGGRDGGGLAPPPGSCSPSLSPSSNRSSPATHSP

Assays:
Bmal1 promoter = assay: NHR-promoter luciferase screen, Bmal1 promoter; assay type: cell-based, mouse; settings: for Luc. act., normalized to lacZ / Normalized Luc. act., normalized to control: Bmal1 promoter, HR component without or with ligand; for mBmal1 promoter reporter activity: transcription factor +/- ligand, control = 1.00
How it was run: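 Luciferase activity was measured 48 h after transfection, normalized to LacZ and then to a control lacking NHR or ligand. CV-1 cells carried 100 ng Bmal1 reporter, 50 ng NHR construct and 50 ng LacZ.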

hPPARg2 promoter = assay: NHR-promoter luciferase screen, hPPARg2 promoter; assay type: cell-based, human; settings: for Luc. act., normalized to lacZ / Normalized Luc. act., normalized to control: PPARG2 promoter, hormone receptor with or without its ligand; for Normalized Luc. act., normalized to control: relative to control; for Results of assays of transcription factor (+/- ligand) with hPPARg2: Table 6d, luciferase activity relative to control (control = 1.00)
How it was run: (§1)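 CV-1 cells were co-transfected with 50 ng NHR (homodimer or NHR/RXR heterodimer), 100 ng promoter-luciferase construct and 50 ng LacZ. Luciferase was normalized to LacZ and to a no-NHR/no-ligand control.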

mNPY promoter = assay: NHR-promoter luciferase screen, mNPY promoter; assay type: cell-based, mouse; settings: for Results of assays of transcription factor (+/- ligand) with mNPY: Table 6d, luciferase activity relative to control (control = 1.00); for Luc. act., normalized to lacZ / Normalized Luc. act., normalized to control: mNPY promoter, HR component with or without ligand; for Normalized Luc. act., normalized to control: relative to control
How it was run: as §1

mABCA1 promoter = assay: NHR-promoter luciferase screen, mABCA1 promoter; assay type: cell-based, mouse; settings: for Luc. act., normalized to lacZ / Normalized Luc. act., normalized to control: ABCA1 promoter, hormone receptor with or without its ligand; for Normalized Luc. act., normalized to control: relative to control; for mABCA1 promoter reporter activity: transcription factor +/- ligand, control = 1.00
How it was run: as §1

hG6PD promoter = assay: NHR-promoter luciferase screen, hG6PD promoter; assay type: cell-based, human; settings: for Luc. act., normalized to lacZ / Normalized Luc. act., normalized to control: G6PD promoter reporter, co-transfected HR, without or with its ligand; for Normalized Luc. act., normalized to control: relative to control; for luciferase activity normalized to lacZ activity and to a control, hG6PD: hG6PD promoter-luciferase, CV-1 cells, NHR +/- ligand, control = 1.00
How it was run: as §1

hTNFa promoter = assay: NHR-promoter luciferase screen, hTNFa promoter; assay type: cell-based, human; settings: for Luc. act., normalized to lacZ / Normalized Luc. act., normalized to control: TNFa promoter, HR component without or with ligand; for hTNFa promoter reporter activity: transcription factor +/- ligand, control = 1.00
How it was run: as §1

Row | Molecule | Luc. act., normalized to lacZ (Bmal1 promoter) | Normalized Luc. act., normalized to control (Bmal1 promoter) | mBmal1 promoter reporter activity (Bmal1 promoter) | Luc. act., normalized to lacZ (hPPARg2 promoter) | Normalized Luc. act., normalized to control (hPPARg2 promoter) | Results of assays of transcription factor (+/- ligand) with hPPARg2 (hPPARg2 promoter) | Results of assays of transcription factor (+/- ligand) with mNPY (mNPY promoter) | Luc. act., normalized to lacZ (mNPY promoter) | Normalized Luc. act., normalized to control (mNPY promoter) | Luc. act., normalized to lacZ (mABCA1 promoter) | Normalized Luc. act., normalized to control (mABCA1 promoter) | mABCA1 promoter reporter activity (mABCA1 promoter) | Luc. act., normalized to lacZ (hG6PD promoter) | Normalized Luc. act., normalized to control (hG6PD promoter) | luciferase activity normalized to lacZ activity and to a control, hG6PD (hG6PD promoter) | Luc. act., normalized to lacZ (hTNFa promoter) | Normalized Luc. act., normalized to control (hTNFa promoter) | hTNFa promoter reporter activity (hTNFa promoter)
1 | B1 | 15.6 | 1.0 | 1.00 | 3.4 | 1.7 | 1.72 | 1.17 | 97.9 | 1.2 | 36.8 | 6.6 | 6.55 | 56.6 | 1.5 | 1.52 | 1854.5 | 1.9 | 1.89
2 | B2 | 18.9 | 1.2 | 1.21 | 3.5 | 1.7 | 1.73 | 1.24 | 103.8 | 1.2 | 24.6 | 4.4 | 4.39 | 57.1 | 1.5 | 1.53 | 1363.2 | 1.4 | 1.39
